Results as given in publication PMC4974525.

Target: African cassava mosaic virus (ACMV) capsid protein expressed in fission yeast (African cassava mosaic virus (ACMV-[Nigeria-Ogo]))
Experiment: SDS-PAGE with Western blot

African cassava mosaic virus (ACMV) capsid protein expressed in fission yeast (natural protein)
stoichiometry N: 2
